These are literature values, as cited in patent US20240158457A1, “INTERLEUKIN-18 RECEPTOR BINDING POLYPEPTIDES AND USES THEREOF” (Medikine, Inc., priority 2022, published 2024).

For this data set, the target named is T1, IL-18 (Homo sapiens, UniProt Q14116).
T1 sequence (Q14116 37-193): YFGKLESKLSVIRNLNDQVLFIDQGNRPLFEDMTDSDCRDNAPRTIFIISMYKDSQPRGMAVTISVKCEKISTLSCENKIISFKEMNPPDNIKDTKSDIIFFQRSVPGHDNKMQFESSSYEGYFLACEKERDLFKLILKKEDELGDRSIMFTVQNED
Particulars: background; read-out: affinity for IL-18.

B1: IL-18BP: IL-18 binding protein, decoy receptor; IL-18BP Fc fusion (Acro #ILP-H5253) (protein)
chain: TPVSQTTTAATASVRSTKDPCPSQPPVFPAAKQCPALEVTWPEVEVPLNGTLSLSCVACSRFPNFSILYWLGNGSFIEHLPGRLWEGSTSRERGSTGTQLCKALVLEQLTPALHSTNFSCVLVDPEQVVQRHVVLAQLWAGLRATLPPTQEALPSSHSSPQQQG
modifications: left off: a dimerising Fc or GST
For B1, the Kd is roughly 0.4 nM.
